# Patent US20110230406A1 (ADVANCED TECHNOLOGIES AND REGENERATIVE MEDICINE, published 2011)
# No end group written: not given here.
# Assays:
# [1] = molecular target: T1, biotinylated BMP-2 (R&D Systems, Item number 355-BM/CF) (human, UniProt P12643 283-396, biotinylated (sites not given)); test: phage ELISA titration, biotinylated BMP-2 captured on streptavidin-coated wells, HRP anti-M13 antibody, luminescence
# T1 construct: Bought protein, biotinylated, captured on streptavidin plates (phage ELISA) or streptavidin donor beads (ALPHA); also called bone morphogenic protein-2
# T1 sequence (P12643 283-396 limits assumed): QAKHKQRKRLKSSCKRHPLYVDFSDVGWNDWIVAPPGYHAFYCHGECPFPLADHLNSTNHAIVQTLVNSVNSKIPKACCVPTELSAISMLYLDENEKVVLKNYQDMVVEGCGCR
# Description: (§1) 96-well black ELISA plates were coated with streptavidin (Rows A through D), hIgG (Rows E and F) and human serum albumin (Rows G and H), at a concentration of 5 micrograms/mL in PBS. Plates were incubated overnight at 4° C. Plates were washed 3 times with TBST using a plate washer. To the streptavidin-coated wells in rows C and D, 100 microliters of a 4 micrograms/mL solution of biotinylated-BMP-2 (R&D Systems, Minneapolis, Minn., Item number 355-BM/CF), was introduced and allowed to sit at room temperature for 30 minutes. To all other wells, 100 microliters of PBS was introduced. The plates were again washed 3 times with TBST using the plate washer. The wells were then blocked with 250 microliters of a 3% dehydrated milk suspension in TBST and allowed to sit at room temperature for a minimum of 1 hour. Using phage concentrations determined by the phage titrations, dilutions of the phage stock solutions were performed in a separate 96-well plate to result in phage concentrations of 10¹⁰, 10⁹, 10⁸, 10⁷, 10⁶ and 10⁵ phage/well. After blocking, the ELISA plate was washed 3 times with TBST and 100 microliters of the phage dilutions were introduced to the respective ELISA plates and allowed to sit at room temperature for a minimum of 1 hour. The ELISA plate was again washed 3 times with TBST using the plate washer and 100 microliters of an HRP-conjugated Anti-M13 Phage Mab (1:5000 dilution in PBS) was introduced to each well. The plates were allowed to sit at room temperature for 1 hour after which time the plates were washed 3 times with TBST. Next, a POD HRP-substrate was introduced to each well. The luminescence was read using a luminometer set with a gain of 150.
# human serum albumin [2] = molecular target: T2, human serum albumin (human, UniProt P02768 25-609); test: phage ELISA titration, HSA-coated wells, HRP anti-M13 antibody, luminescence
# T2 construct: Cross-reactivity control coated at 5 micrograms/mL; also called HSA
# Description: as §1, with “The ELISA plate was again washed 3 times with TBST using the plate washer and 100 microliters of an HRP-conjugated Anti-M13 Phage Mab (1:5000 dilution in PBS) was introduced to each well. The plates were allowed to sit at room temperature for 1 hour after which time the plates were washed 3 times with TBST. Next, a POD HRP-substrate was introduced to each well.” left out
# human IgG = molecular target: T3, human IgG (human); test: phage ELISA titration, hIgG-coated wells, HRP anti-M13 antibody, luminescence
# T3 construct: Cross-reactivity control coated at 5 micrograms/mL; also called hIgG
# Description: as §1, with “The ELISA plate was again washed 3 times with TBST using the plate washer and 100 microliters of an HRP-conjugated Anti-M13 Phage Mab (1:5000 dilution in PBS) was introduced to each well. The plates were allowed to sit at room temperature for 1 hour after which time the plates were washed 3 times with TBST. Next, a POD HRP-substrate was introduced to each well.” left out
# human serum albumin [3] = molecular target: T2, human serum albumin; test: phage ELISA, HSA-coated wells, HRP anti-M13 antibody, luminescence
# Description: as §1
# Streptavidin = test: phage ELISA titration, streptavidin-coated wells without BMP-2, HRP anti-M13 antibody, luminescence
# Description: as §1, with “The ELISA plate was again washed 3 times with TBST using the plate washer and 100 microliters of an HRP-conjugated Anti-M13 Phage Mab (1:5000 dilution in PBS) was introduced to each well. The plates were allowed to sit at room temperature for 1 hour after which time the plates were washed 3 times with TBST. Next, a POD HRP-substrate was introduced to each well.” left out
# [4] = molecular target: T4, rhBMP-2 (R&D Systems, Item number 355-BM/CF) (human, UniProt P12643 283-396); test: SPR (Biacore S51), rhBMP-2 on CM4 chip, peptide at 5 micromolar, 1:1 Langmuir fit, N=3
# T4 construct: Coupled to a CM4 chip by EDC/NHS in SPR; also called human recombinant BMP-2
# T4 sequence (P12643 283-396 limits assumed): as above
# Description: Peptide binding affinity to BMP-2 was evaluated for SEQ ID NO: 3 and SEQ ID NO: 6 by surface plasmon resonance measurements. Measurements were performed on a Biacore S51 (Biacore Life Sciences, Piscataway, N.J.) instrument using a CM4 Series-S sensor chip. rhBMP-2 (R&D Systems, Minneapolis, Minn., Item number 355-BM/CF) was immobilized on the sensor chip using 1-ethyl-3[3-dimethylaminopropyl]carbodiimide hydrochloride (EDC)/N-hydroxysuccinimide (NHS) coupling chemistry. […] Data were fit to a 1:1 Langmuir binding model using Biacore Analysis Software (Biacore Life Sciences, Piscataway, N.J.).
# The data shown in Table 2 are average equilibrium dissociation constants with an N value of 3.
# [5] = molecular target: T1, biotinylated BMP-2 (R&D Systems, Item …); test: ALPHA, biotinylated BMP-2 at 0.825 micrograms/mL, Ni-acceptor and streptavidin-donor beads
# Description: Diluted stock of biotinylated BMP-2 (R&D Systems, Minneapolis, Minn., Item number 355-BM/CF) at 3.3 micrograms/ml was prepared in 2× assay buffer (PBS, 0.01% Tween-80, 0.05% BSA). Chemically synthesized peptides having SEQ ID NO: 1, SEQ ID NO: 2, SEQ ID NO: 3, and SEQ ID NO: 6 were prepared using standard, automated Fluorenylmethyloxycarbonyl (Fmoc) solid phase peptide synthesis procedures. Each peptide solution for the assay was prepared from a 100 microgram/mL stock solution. The stock solution was serially diluted in ½ log steps in assay buffer resulting in peptide concentrations of 100, 33.3, 11.1, 3.70, 1.23, 0.41, 0.14, 0.046, 0.015, 0.0051, 0.0017 and 0.00056 micrograms/mL. Subsequently, serially diluted peptides were added to the corresponding wells containing the 10 microliters of the 3.3 microgram/mL solution of biotinylated BMP-2. Final assay test concentration for biotinylated BMP-2 was 0.825 micrograms/mL. Final peptide concentrations were 25, 8.3, 2.8, 0.93, 0.31, 0.10, 0.03, 0.01, 0.003, 0.001, 0.0003 and 0.0001 micrograms/mL. Next, Nickel (Ni)-acceptor and streptavidin (SA)-donor beads (Perkin Elmer, Waltham, Mass., Item number 6760619M) were diluted 1:100 in assay buffer prior to adding 20 microliters to each test well. […] The emission of the plate was read using a dual wavelength fluorometer (Perkin Elmer (Waltham, Mass.) Envision 2101 Multilabel Reader).
binder,measurement,setting,value
"AGFRWWHTQPAHTLSYT (also: displayed on phage pIX minor coat protein, junction not given here, not shown: pIX minor coat protein of the phage that carries the peptide) [phage displaying the peptide of SEQ ID NO: 4 on the pIX minor coat protein]",binding result,[1],binds
same,binding result,human serum albumin [2],binds
same,EC50 (read off the curve),human IgG,~1e+08 phage/well
"AGYTSFALLKSAESTLP (also: displayed on phage pIX coat protein fusion, not shown: pIX minor coat protein of the phage that carries the peptide) [phage displaying the peptide of SEQ ID NO: 3 on the pIX minor coat protein]",binding result,human serum albumin [3],no binding (tested: 10^9 phage/mL)
same,EC50 (read off the curve),[1],~1e+08 phage/well
same,binding result,Streptavidin,no binding (tested: 1.00E+10 phage/well)
AGYTSFALLKSAESTLP (Fmoc solid phase synthesis; used in ALPHA and SPR) [chemically synthesized peptide having SEQ ID NO: 3],Kd,[4],398 nM
AGPPGPYIAASAFLALK (Fmoc solid phase synthesis) [chemically synthesized peptide having SEQ ID NO: 2],binding result,[5],binds
"AGRDSFNLLTSSPLPST (Fmoc solid phase synthesis; used in ALPHA, SPR and the alkaline phosphatase assay) [chemically synthesized peptide having SEQ ID NO: 6]",Kd,[4],303 nM
AGLPLQSMSRLSYDSLS (Fmoc solid phase synthesis) [chemically synthesized peptide having SEQ ID NO: 1],binding result,[5],binds
